Test results published in article PMC3575847 (Nucleic Acids Research, 2012).

Molecular target: T1, Upf1-FL produced in E. coli (Upf1-FLc; amino acids 1–1118) (human, UniProt Q92900-2 1-1118)
T1 sequence (looked up): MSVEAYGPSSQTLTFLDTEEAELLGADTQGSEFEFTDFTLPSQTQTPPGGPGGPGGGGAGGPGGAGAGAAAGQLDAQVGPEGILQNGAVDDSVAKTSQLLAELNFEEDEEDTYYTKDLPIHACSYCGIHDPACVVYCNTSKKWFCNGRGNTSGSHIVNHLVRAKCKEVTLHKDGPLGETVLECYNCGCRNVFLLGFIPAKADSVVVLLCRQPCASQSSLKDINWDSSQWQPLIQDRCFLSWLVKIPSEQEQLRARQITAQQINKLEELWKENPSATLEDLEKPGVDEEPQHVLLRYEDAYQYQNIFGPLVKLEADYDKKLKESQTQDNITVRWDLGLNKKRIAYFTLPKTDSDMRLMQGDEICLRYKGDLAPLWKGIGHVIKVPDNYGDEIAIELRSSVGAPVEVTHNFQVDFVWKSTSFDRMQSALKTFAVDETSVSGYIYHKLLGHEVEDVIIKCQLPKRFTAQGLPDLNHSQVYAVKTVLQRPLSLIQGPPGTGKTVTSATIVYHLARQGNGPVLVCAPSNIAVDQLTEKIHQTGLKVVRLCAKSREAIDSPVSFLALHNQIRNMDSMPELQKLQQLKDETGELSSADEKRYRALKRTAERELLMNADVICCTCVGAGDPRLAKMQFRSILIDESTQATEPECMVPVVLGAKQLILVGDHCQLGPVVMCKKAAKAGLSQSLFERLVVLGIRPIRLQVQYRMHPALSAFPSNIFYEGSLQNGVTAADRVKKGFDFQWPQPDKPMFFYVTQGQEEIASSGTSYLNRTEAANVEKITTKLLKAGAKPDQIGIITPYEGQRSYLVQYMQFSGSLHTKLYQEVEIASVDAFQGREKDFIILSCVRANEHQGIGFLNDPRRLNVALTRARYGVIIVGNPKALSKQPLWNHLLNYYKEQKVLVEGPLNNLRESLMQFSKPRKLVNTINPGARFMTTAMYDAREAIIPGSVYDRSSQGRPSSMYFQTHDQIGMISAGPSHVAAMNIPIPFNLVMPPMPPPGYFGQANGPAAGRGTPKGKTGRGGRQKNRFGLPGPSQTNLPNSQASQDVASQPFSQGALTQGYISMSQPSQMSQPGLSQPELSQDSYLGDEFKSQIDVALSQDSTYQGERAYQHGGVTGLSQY
Assay: pull-down

B1: CBP-tagged Upf2 (761–1227) (domain or fragment, UniProt Q9HAU5 761-1227, looked up)
chain: EKTVKKKRPPLQEYVRKLLYKDLSKVTTEKVLRQMRKLPWQDQEVKDYVICCMINIWNVKYNSIHCVANLLAGLVLYQEDVGIHVVDGVLEDIRLGMEVNQPKFNQRRISSAKFLGELYNYRMVESAVIFRTLYSFTSFGVNPDGSPSSLDPPEHLFRIRLVCTILDTCGQYFDRGSSKRKLDCFLVYFQRYVWWKKSLEVWTKDHPFPIDIDYMISDTLELLRPKIKLCNSLEESIRQVQDLEREFLIKLGLVNDKDSKDSMTEGENLEEDEEEEEGGAETEEQSGNESEVNEPEEEEGSDNDDDEGEEEEEENTDYLTDSNKENETDEENTEVMIKGGGLKHVPCVEDEDFIQALDKMMLENLQQRSGESVKVHQLDVAIPLHLKSQLRKGPPLGGGEGEAESADTMPFVMLTRKGNKQQFKILNVPMSSQLAANHWNQQQAEQEERMRMKKLTLDINERQEQED
binding result: binds
